B1: Caninized VH-VL M14 chimeric antibody (caninized VH of M14 fused to human IgG1 heavy chain and caninized VL of M14 fused to human kappa constant light chain) (antibody, V domains shown)
VH: EVQLVESGPSLVKPGGSLRLTCSVTGDSITSGYWNWIRKFPGNKLEYMGYISYSGITDYNPSLKSRITISRDTSKNQYYLQLNSVTTEDTATYYCARYGNYGYAMDYWGQGTSVTVSS
VL: DIVMTQSPASLSVSLGQRATISCRASESVDTYGNSFMHWYQQKPGQSPKLLIYRASNLESGIPARFGGSGSGTDFTLTIDPVQADDVATYYCQQSYEDPWTFGGGTKLEIK
notes: Chimeric: VH fused to human IgG1 heavy chain, VL fused to human kappa constant light chain; also called analyte 1; caninized VH-VL M14 antibody control
B2: cmVH1 + cmVL1 chimeric antibody (antibody, human IgG1, V domains shown)
VH: EVQLVESGPSLVKPGGSLRLTCSVTGDSITSGYWKWIRKFPGNKLEYMGYISYSGITDYNPSLKSRITISRDTSKNQYYLQLNSVTTEDTATYYCARYGNYGYAMDYWGQGTSVTVSS
VL: DIVMTQSPASLSVSLGQRATISCRASESVDTYGRSFMHWYQQKPGQSPKLLIYRASNLESGIPARFGGSGSGTDFTLTIDPVQADDVATYYCQQSYEDPWTFGGGTKLEIK
notes: also called analyte 2
B3: cmVH2 + cmVL2 chimeric antibody (antibody, human IgG1, V domains shown)
VH: EVQLVESGPSLVKPGGSLRLTCSVTGDSITSGYWKWIRKFPGNKLEYMGYISYSGITDYNPSLKSRITISRDTSKNQYYLQLNSVTTEDTATYYCARYPNYGYAMDYWGQGTSVTVSS
VL: DIVMTQSPASLSVSLGQRATISCRASESVDTYGRSFMHWYQQKPGQSPKLLIYRASNLESGIPARFGGSGSGTDFTLTIDPVQADDVATYYCYQSYEDPWTFGGGTKLEIK
notes: also called analyte 3
B4: cmVH2 + cmVL3 chimeric antibody (antibody, human IgG1, V domains shown)
VH: EVQLVESGPSLVKPGGSLRLTCSVTGDSITSGYWKWIRKFPGNKLEYMGYISYSGITDYNPSLKSRITISRDTSKNQYYLQLNSVTTEDTATYYCARYPNYGYAMDYWGQGTSVTVSS
VL: DIVMTQSPASLSVSLGQRATISCRASESVDTYGRSFMHWYQQKPGQSPKLLIYRASNLESGIPARFGGSGSGTDFTLTIDPVQADDVATYYCHQSYEDPWTFGGGTKLEIK
notes: also called analyte 4
B5: cmVH3 + cmVL2 chimeric antibody (antibody, human IgG1, V domains shown)
VH: EVQLVESGPSLVKPGGSLRLTCSVTGDSITSGYWKWIRKFPGNKLEYMGYISYSGITDYNPSLKSRITISRDTSKNQYYLQLNSVTTEDTATYYCARYANYGYAMDYWGQGTSVTVSS
VL: DIVMTQSPASLSVSLGQRATISCRASESVDTYGRSFMHWYQQKPGQSPKLLIYRASNLESGIPARFGGSGSGTDFTLTIDPVQADDVATYYCYQSYEDPWTFGGGTKLEIK
notes: also called analyte 5
B6: cmVH3 + cmVL3 chimeric antibody (antibody, human IgG1, V domains shown)
VH: EVQLVESGPSLVKPGGSLRLTCSVTGDSITSGYWKWIRKFPGNKLEYMGYISYSGITDYNPSLKSRITISRDTSKNQYYLQLNSVTTEDTATYYCARYANYGYAMDYWGQGTSVTVSS
VL: DIVMTQSPASLSVSLGQRATISCRASESVDTYGRSFMHWYQQKPGQSPKLLIYRASNLESGIPARFGGSGSGTDFTLTIDPVQADDVATYYCHQSYEDPWTFGGGTKLEIK
notes: also called analyte 6

Target: T1, Canine IL31 (canine)
T1 chain: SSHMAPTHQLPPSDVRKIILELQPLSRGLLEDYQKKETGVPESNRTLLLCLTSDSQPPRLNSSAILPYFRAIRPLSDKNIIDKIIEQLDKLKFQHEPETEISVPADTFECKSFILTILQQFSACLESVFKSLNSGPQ
Test: SPR, BIAcore 8K, Protein A sensor chip
Method: Chimeric antibodies composed of different combinations of cmVH1, cmVH2, or cmVH3 fused to human IgG1 heavy chain and cmVL1, cmVL2, and cmVL3 fused to human kappa constant light chain were generated. Caninized VH of M14 (SEQ ID NO: 3) fused to human IgG1 heavy chain and caninized VL of M14 (SEQ ID NO: 4) fused to human kappa constant light chain was also generated. Affinity of canine IL31 to the different chimeric antibodies was measured using a BIAcore 8K, as described in Table 3 below: […]

Row | Binder | Kd | koff | kon
1 | B1 | 2.18 nM | 0.000523 s⁻¹ | 240000 M⁻¹ s⁻¹
2 | B2 | 0.8 nM | 0.000182 s⁻¹ | 228000 M⁻¹ s⁻¹
3 | B3 | 0.914 nM | 0.000159 s⁻¹ | 174000 M⁻¹ s⁻¹
4 | B4 | 0.868 nM | 0.000162 s⁻¹ | 186000 M⁻¹ s⁻¹
5 | B5 | 0.9 nM | 0.000168 s⁻¹ | 187000 M⁻¹ s⁻¹
6 | B6 | 0.858 nM | 0.000185 s⁻¹ | 216000 M⁻¹ s⁻¹

— patent publication US20220324960A1 (KINDRED BIOSCIENCES, published 2022)
